Laboratory results taken from patent US20040077845A1, “Modifier” (priority 2001, published 2004).

Legend:
[1] = solubility of lyophilized modification products in water or PBS; assay type: physicochemical; settings: dissolved in water or PBS
Description: The modification products of bovine serum albumin and human immunoglobulin G separated using HPLC as described in Example 2 were adequately dialyzed against water and lyophilized. The lyophilized modification products and lyophilized unmodified counterparts for both of the proteins were similarly dissolved in water or PBS.

bovine serum albumin = target: T1, bovine serum albumin (Bos taurus, UniProt P02769); assay: galactose content of the protein modified with agarooligosaccharides (hydrolysis, 2-aminopyridine labelling, HPLC); assay type: biochemical; settings: reacted with agarooligosaccharides in PBS pH 7.2, 37° C., 24 hours
T1 construct: purchased Sigma A0281
T1 sequence (P02769 25-607): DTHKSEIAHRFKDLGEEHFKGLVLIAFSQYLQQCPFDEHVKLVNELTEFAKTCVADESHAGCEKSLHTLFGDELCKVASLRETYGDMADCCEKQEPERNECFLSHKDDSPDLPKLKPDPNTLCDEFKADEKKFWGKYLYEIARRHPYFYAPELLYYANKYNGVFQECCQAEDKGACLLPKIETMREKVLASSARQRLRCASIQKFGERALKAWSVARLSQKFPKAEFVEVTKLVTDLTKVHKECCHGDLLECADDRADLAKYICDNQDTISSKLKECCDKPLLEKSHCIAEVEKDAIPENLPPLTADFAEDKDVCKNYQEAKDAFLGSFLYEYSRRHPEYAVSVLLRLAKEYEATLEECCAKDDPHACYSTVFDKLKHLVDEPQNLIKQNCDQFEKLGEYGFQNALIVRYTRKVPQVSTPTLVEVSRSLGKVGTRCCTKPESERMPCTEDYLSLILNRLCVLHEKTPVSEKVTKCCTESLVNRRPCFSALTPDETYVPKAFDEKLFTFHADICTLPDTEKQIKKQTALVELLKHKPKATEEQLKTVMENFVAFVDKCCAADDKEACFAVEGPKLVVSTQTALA
Protocol: A solution containing the agarooligosaccharides as described in Example 1-(1) at a concentration of 100 mg/ml and a solution containing bovine serum albumin (Sigma, A0281) at a concentration of 11.1 mg/ml in PBS (pH 7.2) were mixed at a ratio of 1:9. The mixture was reacted at 37° C. for 24 hours to obtain a modification product of bovine serum albumin.
In order to confirm that the agarooligosaccharides were attached to the proteins, the modification products of the proteins were dialyzed to remove free agarooligosaccharides, and only high molecular weight fractions were collected by HPLC. HPLC was carried out as follows.
The protein concentrations in the separated fractions were determined by measuring the absorbances at 280 nm, and fractions containing the proteins were collected. As a control, unmodified counterparts for both of the proteins were also separated under the same conditions. Next, the galactose contents in the collected protein fractions were measured. […] The reducing ends of the resulting monosaccharides were fluorescence-labeled with 2-aminopyridine using GlycoTAG and GlycoTAG Reagent kit (both from Takara Shuzo). The sugar compositions were analyzed according to a conventional method by HPLC (Agric. Biol. Chem. 55, 283-284 (1991)) to determine the galactose contents in the respective protein fractions. […]

With “modification product of bovine serum albumin: bovine serum albumin reacted with the agarooligosaccharides in PBS at 37° C. for 24 hours” the “solubility compared with unmodified counterparts” value [1] was “superior to that of the unmodified counterparts” and the “molecules of galactose attached to one molecule of the modification product” value (bovine serum albumin) was “eight”.
